Legend:
[1] = biological target: OmpG^L3-FLAG (Escherichia coli) (UniProt P76045); experiment: single-channel current recording, N=3 pores, n=9 binding events
[2] = biological target: OmpG^Q224-FLAG (Escherichia coli) (UniProt P76045); experiment: single-channel current recording, 30 nM FG4R
[3] = biological target: OmpG^Q224-FLAG (Escherichia coli) (UniProt P76045); experiment: single-channel current recording, 30 nM antibody, 50 mV, 30 pA pores

Monoclonal mouse anti-FLAG antibody FG4R [RRID AB_1957945]
reduction in pore conductance in the bound state [1]: 5.02%
reduction of current flow in the bound state [2]: 10%

FLAG tag monoclonal antibody OTI4C5 (OriGene Technologies)
reduction in current in the bound state [3]: 20 pA

Source: patent US20240036027A1
